The results in this text go back to patent US9725518B2, “Antibodies that bind to Jagged 1” (Cancer Research Technology Limited, priority 2013, dated 2017).

Numbering of substitutions follows the chain as printed.

B1: J1-65D variant 4: humanised/de-immunised J1-65D: J1-65D_VL_1 + J1-65D_VH_4 (antibody, V domains shown)
VH: QVQLVQSGAEVKKPGSSVKVSCKASGYTFTDYEMHWVRQAPGQGLEWMGAIQPGGGGTAYAQKFQGRVTITADKSTSTAYMELSSLRSEDTAVYYCTRRGYDDYPFAYWGQGTLVTVSSASTKGP
VL: DIQMTQSPSSLSASVGDRVTITCRASGNIHNYLAWYQQKPGKAPKLLIYNAKTLADDVPSRFSGSGSGTDYTLTISSLQPEDFATYYCQHFWSAPWTFGGGTKLEIKRT
B2: J1-65D variant 9: humanised/de-immunised J1-65D: J1-65D_VL_3 + J1-65D_VH_1 (antibody, V domains shown)
VH: B1 VH with V11L, A61N, Q65K, I70L
VL: B1 VL with D57A, G100Q
B3: J1-65D variant 5: humanised/de-immunised J1-65D: J1-65D_VL_2 + J1-65D_VH_1 (antibody, V domains shown)
VH: B1 VH with V11L, A61N, Q65K, I70L
VL: B1 VL with D57A
B4: J1-65D variant 8: humanised/de-immunised J1-65D: J1-65D_VL_2 + J1-65D_VH_4 (antibody, V domains shown)
VH: B1 VH
VL: B1 VL with D57A

The first data set deals with T1, N1 binding to cell surface expressed hJ1 (Homo sapiens, UniProt P78504).
T1 construct: cell expressed full length human J1 (hJ1; HEK293 transfectants); expressed in transfected cells; host or cells: HEK293
T1 sequence (P78504 34-1218): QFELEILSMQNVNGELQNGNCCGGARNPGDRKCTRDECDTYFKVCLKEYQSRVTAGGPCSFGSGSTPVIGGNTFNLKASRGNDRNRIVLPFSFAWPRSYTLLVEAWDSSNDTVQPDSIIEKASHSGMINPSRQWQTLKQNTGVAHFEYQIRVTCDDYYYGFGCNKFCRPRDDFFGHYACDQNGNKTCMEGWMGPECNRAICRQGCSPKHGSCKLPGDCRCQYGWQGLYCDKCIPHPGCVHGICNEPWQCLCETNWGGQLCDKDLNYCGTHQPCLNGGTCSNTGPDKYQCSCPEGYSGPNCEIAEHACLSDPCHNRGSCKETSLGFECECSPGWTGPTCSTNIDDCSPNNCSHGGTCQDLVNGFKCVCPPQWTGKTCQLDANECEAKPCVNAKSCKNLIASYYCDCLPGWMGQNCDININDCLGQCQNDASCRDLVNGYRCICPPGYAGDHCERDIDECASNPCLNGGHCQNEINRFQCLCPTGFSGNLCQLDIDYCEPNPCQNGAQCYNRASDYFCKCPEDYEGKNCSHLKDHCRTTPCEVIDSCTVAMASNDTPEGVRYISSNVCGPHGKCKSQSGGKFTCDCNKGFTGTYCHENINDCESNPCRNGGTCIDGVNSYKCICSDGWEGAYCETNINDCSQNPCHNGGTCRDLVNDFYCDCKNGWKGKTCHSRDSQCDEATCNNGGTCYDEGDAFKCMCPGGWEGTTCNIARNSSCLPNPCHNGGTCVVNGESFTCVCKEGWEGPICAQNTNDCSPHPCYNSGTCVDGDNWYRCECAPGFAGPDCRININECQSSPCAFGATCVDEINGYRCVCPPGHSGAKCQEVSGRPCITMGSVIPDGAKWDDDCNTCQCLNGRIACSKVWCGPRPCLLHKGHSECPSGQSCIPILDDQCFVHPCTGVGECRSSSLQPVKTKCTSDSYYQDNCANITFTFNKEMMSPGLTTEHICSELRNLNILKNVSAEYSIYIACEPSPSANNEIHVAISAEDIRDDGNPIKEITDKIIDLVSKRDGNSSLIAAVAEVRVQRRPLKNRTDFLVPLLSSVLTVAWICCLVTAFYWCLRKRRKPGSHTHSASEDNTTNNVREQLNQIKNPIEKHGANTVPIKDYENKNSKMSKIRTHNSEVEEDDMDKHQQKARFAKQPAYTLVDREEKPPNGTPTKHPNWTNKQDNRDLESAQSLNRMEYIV
Description: Notch binding blocking assay (FACS): N1 EGF11-13 beads staining human J1-expressing cells. Also noted: key: +: Complete blocking; X: No blocking. The settings on record: final antibody concentration 0.2 μg/ml. The method in brief:
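E. coli-expressed, refolded human N1 EGF11-13 (411-526), biotinylated on avidin-coated fluorescent beads, stained human J1-transfected HEK293 cells with hybridoma supernatant or purified antibody diluted in HBSS/10% FCS. Purified mAbs titrated in dilution series; bead binding read by flow cytometry.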
Turning to B1, the “Blocking of Notch1 binding to cell surface Jagged 1” value (shortened to “Blocking of Notch1 binding”) is listed as “X”.

As to B2, the “Blocking of Notch1 binding” value is “X”.

Regarding B3, the “Blocking of Notch1 binding” value is listed as “X”.

As for B4, the “Blocking of Notch1 binding” value was “X”.

Still in this data set, the particulars now being: final antibody concentration 0.4 μg/ml.
Turning to B1, the “Blocking of Notch1 binding” value is “+ (Complete blocking)”.

Regarding B2, the “Blocking of Notch1 binding” value was “+ (Complete blocking)”.

In the case of B3, the “Blocking of Notch1 binding” value is listed as “+ (Complete blocking)”.

Turning to B4, the “Blocking of Notch1 binding” value is “+ (Complete blocking)”.

The same data set, now with this note: final antibody concentration 0.6 μg/ml.
As for B1, the “Blocking of Notch1 binding” value is reported as “+ (Complete blocking)”.

For the molecule B2, the “Blocking of Notch1 binding” value was “+ (Complete blocking)”.

For the molecule B3, the “Blocking of Notch1 binding” value is reported as “+ (Complete blocking)”.

Take B4: the “Blocking of Notch1 binding” value is “+ (Complete blocking)”.

Still in this data set, the particulars now being: final antibody concentration 1.0 μg/ml.
As for B1, the “Blocking of Notch1 binding” value is “+ (Complete blocking)”.

For the molecule B2, the “Blocking of Notch1 binding” value is reported as “+ (Complete blocking)”.

Regarding B3, the “Blocking of Notch1 binding” value was “+ (Complete blocking)”.

For B4, the “Blocking of Notch1 binding” value was “+ (Complete blocking)”.

Another data set deals with J1-induced Notch signalling. In words: Luciferase assay, LS174T RBPJ reporter stimulated with J1 protein. It is filed as cell-based, human. Conditions: humanised/chimeric mAbs 10 μg/ml, NE3-Fc; DBZ control. On the procedure: FIG. 9. […] (A) The colorectal cancer cell line LS174T expressing luciferase under the control of Notch co-factor RBPJ was stimulated with mammalian cell-expressed soluble J1 proteins (NE3-Fc and NE12-Fc) or a control protein in the presence of J1 mAbs (10 μg/ml), and luciferase activity was measured. […] (C) Breast cancer MDA-MB-231 cells were cultured with J1 mAbs. The expression level of the Notch target gene HES1 was measured by qPCR using β2m as the control gene. In all experiments the γ-secretase inhibitor DBZ was used as a positive control for pan Notch inhibition and a control mAb (IgG2b or IgG1) or no treatment (NT) were negative controls.
FIG. 20. Inhibition of human Jagged 1/Notch signalling by humanised and de-immunised J1-mAbs in vitro. The colorectal cancer cell line LS174T expressing luciferase under the control of Notch co-factor RbPJ was stimulated with mammalian cell-expressed recombinant J1 protein (NE3-Fc protein, right bar for each treatment) or a control protein (left bar) in the presence of J1 mAbs (10 μg/ml), and luciferase activity was measured. The parental murine monoclonal antibody (Mo), Murine IgG1, DMSO and DBZ were used as controls.
Having established that the J1 mAbs were able to block the binding of the J1 ligand to its receptor N1 their effect on the activity of the Notch signalling pathway was investigated. The human colorectal cancer cell line LS174T, stably expressing a luciferase reporter gene under control of Notch co-factor RBPJ, was stimulated with two forms of immobilised J1 protein: N-terminus to EGF3 and N-terminus to EGF12. […] Importantly, the best two J1 mAbs (J1-65D and J1-183D) were also tested against other Notch ligands in order to verify ligand specificity.
Prior to experiment, clear bottom 96-well plates (CELLSTAR) wells were coated with either J1-ECD fragments (NE3-Fc and NE12-Fc), other Notch-ligands (J2 or DLL4; both from R&D) or control protein (mlgG2b) at the concentration of 5 μg/ml in 0.1% BSA-PBS (overnight incubation at 4° C.). LS174T colorectal cancer cells, expressing the luciferase gene under control of the Notch cofactor RbPJ, were then plated (4×10^4 cells/well) in the presence of different mAbs (10 μg/ml) or DBZ (100 nM). Luciferase activity was then quantified 24 hours later using the Bright-Glo Luciferase Assay System (Promega).
On to B1, for which the “inhibition of J1-induced luciferase activity” value was “inhibited as effectively as by the parental murine mAb”.

Consider B2, for which the “inhibition of J1-induced luciferase activity” value was “inhibited as effectively as by the parental murine mAb”.

B3: the “inhibition of J1-induced luciferase activity” value was “inhibited as effectively as by the parental murine mAb”.

As for B4, the “inhibition of J1-induced luciferase activity” value is reported as “inhibited as effectively as by the parental murine mAb”.

A further data set concerns MDA-MB-231 spheroids. In words: Spheroid assay (3-D growth), MDA-MB-231. It is filed as cell-based, human. Conditions: humanised variants 5 μg/ml. An excerpt: Similar findings were also reported for the Merck anti-N1 mAbs when tested on the LS-1034 cell line. As cell-cell contact is required to activate Notch signalling a spheroid-based 3-D growth model was used to test the ability of the J1 mAbs to block tumour growth. Furthermore, the 3-D model better mimics in vivo conditions including hypoxia and acidosis, allowing evaluation of the mAbs effect in a more realistic setting. Spheroids were generated from MDA-MB-231 breast cancer cells and the ability of different concentrations of the J1-65D mAb to inhibit their growth was evaluated.
Cells were harvested and resuspended in 2.5% Matrigel (BD)-complete DMEM medium. Cell suspension was plated on low-adherence 96-well plates (Corning) (200 μl/well) and spheroids, of approximately fixed cell number (5×10^3 cells for MDA-MB-231 and MDA-MB-468 cell lines; 2×10^3 for MCF7 cells) were then generated by spinning plates at 1800 rpm for 10 minutes. The following day, pictures of the spheroids were taken (day 1) and treatments were added (mAbs were used at 10 μg/ml [5 μg/ml for humanised antibodies] while DBZ was used at the concentration of 100 nM). In some experiments Paclitaxel (1 nM) and Doxorubicin (20 nM) were used in combination with J1-65D mAb treatment. Every 2 days pictures were taken and half of the medium was replaced with fresh one containing mAb/drug. At the end of the experiment, spheroids were either lysed for RNA extraction, were processed and paraffin-embedded for immunohistochemical analysis or were dissociated by pipetting and trypsinization into single cell suspensions for FACS analysis. Spheroid size was evaluated by image analysis using ImageJ software.
In the case of B1, the spheroid growth inhibition result is given as “slightly reduced ability to inhibit spheroid growth”.

In the case of B2, the spheroid growth inhibition result is recorded as “most comparable to the parental mAb”.

In the case of B3, the spheroid growth inhibition result is listed as “most comparable to the parental mAb”.

For the molecule B4, the spheroid growth inhibition result is “slightly reduced ability to inhibit spheroid growth”.

Test system in a further data set: not listed separately
In words: Soluble aggregates of transiently expressed antibodies. The format is physicochemical. Conditions: Protein A purified antibody. An excerpt: The protein yield of these antibodies, their levels of soluble aggregates and their binding affinity to the immunogen (J1-DE3) are illustrated in (Table 6).
B1: the “% soluble aggregate” value came out at 0%.

As to B2, the “% soluble aggregate” value was found to be 0%.

As for B3, the “% soluble aggregate” value was determined as 0%.

Turning to B4, the “% soluble aggregate” value is on record as 0%.
